First the molecules themselves.
B1: Mycobacterium smegmatis trehalose synthase (TreS) (enzyme, M. smegmatis, UniProt A0R6E0 1-593, looked up)
chain: MEEHTQGSHVEAGIVEHPNAEDFGHARTLPTDTNWFKHAVFYEVLVRAFYDSNADGIGDLRGLTEKLDYIKWLGVDCLWLPPFYDSPLRDGGYDIRDFYKVLPEFGTVDDFVTLLDAAHRRGIRIITDLVMNHTSDQHEWFQESRHNPDGPYGDFYVWSDTSDRYPDARIIFVDTEESNWTFDPVRRQFYWHRFFSHQPDLNYDNPAVQEAMLDVLRFWLDLGIDGFRLDAVPYLFEREGTNCENLPETHAFLKRCRKAIDDEYPGRVLLAEANQWPADVVAYFGDPDTGGDECHMAFHFPLMPRIFMAVRRESRFPISEILAQTPPIPDTAQWGIFLRNHDELTLEMVTDEERDYMYAEYAKDPRMKANVGIRRRLAPLLENDRNQIELFTALLLSLPGSPVLYYGDEIGMGDIIWLGDRDSVRTPMQWTPDRNAGFSKATPGRLYLPPNQDAVYGYHSVNVEAQLDSSSSLLNWTRNMLAVRSRHDAFAVGTFRELGGSNPSVLAYIREVTRQQGDGGAKTDAVLCVNNLSRFPQPIELNLQQWAGYIPVEMTGYVEFPSIGQLPYLLTLPGHGFYWFQLREPDPEPGAQQ
notes: Trehalose synthase TreS of M. smegmatis, locus MSMEG_6515, cloned from genomic DNA into NdeI/HindIII of pET28a; the printed primers run from the start codon to the stop codon; calculated tetramer mass 272,000 Da; also called Msm TreS; MSMEG_6515; source: E. coli BL21 (DE3), purified (Ni-NTA, HiTrap Q, Sephacryl S-300HR)

Data set [1] concerns the molecule itself. Put plainly: AUC; sedimentation equilibrium, 50 mM sodium phosphate pH 6.5, 300 mM NaCl, 10% glycerol, 4 °C; 8000, 9000, 10,000 rpm; TreS alone at 6, 4, 2 μM, 1:1 mixture at 3.75, 2.5, 1.25 μM; single-species model.
Data set [2] addresses B1. The data set is described as follows: ITC; Pep2 (500 μM in the syringe) titrated into TreS (75 μM monomer); 50 mM sodium phosphate pH 6.5, 300 mM NaCl, 10% glycerol, 25 °C. The settings on record: both partners purified. A general note: In ITC the heat of successive injections is recorded.
Data set [3] addresses B1. Described as above. The settings on record: both partners purified. The source holds these as a separate data set.
Data set [4] has as its target T1, Mycobacterium smegmatis trehalose synthase (TreS) (M. smegmatis, UniProt A0R6E0 1-593).
T1 construct: Trehalose synthase TreS of M. smegmatis (MSMEG_6515), cloned from genomic DNA with primers from the start codon to the stop codon; concentrations in the ITC count on the monomer; also called Msm TreS; MsTreS; source: E. coli BL21 (DE3), purified (Ni-NTA, HiTrap Q, Sephacryl S-300HR)
T1 sequence (looked up): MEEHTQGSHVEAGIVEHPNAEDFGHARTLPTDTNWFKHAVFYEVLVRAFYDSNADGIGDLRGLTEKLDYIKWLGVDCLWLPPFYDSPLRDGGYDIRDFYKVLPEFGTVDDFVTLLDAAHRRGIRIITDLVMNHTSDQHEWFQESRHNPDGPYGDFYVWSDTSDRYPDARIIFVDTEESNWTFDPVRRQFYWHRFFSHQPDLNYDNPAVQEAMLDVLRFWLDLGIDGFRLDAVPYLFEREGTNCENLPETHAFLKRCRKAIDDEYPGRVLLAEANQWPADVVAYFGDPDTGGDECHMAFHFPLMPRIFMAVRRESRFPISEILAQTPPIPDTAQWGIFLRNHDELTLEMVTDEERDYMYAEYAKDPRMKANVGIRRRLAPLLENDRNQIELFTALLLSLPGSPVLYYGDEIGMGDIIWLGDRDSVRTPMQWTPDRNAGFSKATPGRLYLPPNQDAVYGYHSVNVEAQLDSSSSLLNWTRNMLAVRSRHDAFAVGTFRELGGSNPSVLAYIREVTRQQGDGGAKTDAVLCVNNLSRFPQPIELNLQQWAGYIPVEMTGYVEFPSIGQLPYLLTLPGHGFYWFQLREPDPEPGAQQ
Put plainly: ITC; Pep2 titrated to 75 uM TreS in the sample chamber, up to a molar ratio [Pep2]/[TreS] of about 1.5; pH 6.5; 200 mM NaCl; 298 K. The settings on record: both partners purified.

For data set [5], the target named is T1, Mycobacterium smegmatis trehalose …. Put plainly: ITC; Pep2 titrated to 75 uM TreS in the sample chamber, up to a molar ratio [Pep2]/[TreS] of about 1.5; pH 6.5; 400 mM NaCl; 298 K. To be noted: both partners purified.
Data set [6] has the same target. The data set is described as follows: ITC; Pep2 titrated to 75 uM TreS in the sample chamber, up to a molar ratio [Pep2]/[TreS] of about 1.5; pH 6.5; 300 mM NaCl; 298 K. The settings on record: both partners purified.
Data set [7] concerns the target B1. The data set is described as follows: ITC; Pep2 (500 μM in the syringe) titrated into TreS (75 μM monomer); 50 mM sodium phosphate pH 8.5, 300 mM NaCl, 10% glycerol, 25 °C. The settings on record: both partners purified.
Data set [8] deals with B1. The data set is described as follows: AUC; sedimentation equilibrium, 50 mM sodium phosphate pH 6.5, 300 mM NaCl, 10% glycerol, 4 °C; 8000, 9000, 10,000 rpm; TreS alone at 6, 4, 2 μM, 1:1 mixture at 3.75, 2.5, 1.25 μM; single-species model. To be noted: both partners purified.
The target in data set [9] is B1. The data set is described as follows: crystal structure; vapor diffusion of mixtures of M. smegmatis TreS and Pep2 at molar ratios 1:1 to 1:2; 9-10% PEG 8000, 4% glycerol, 200 mM MgCl2, 0.1 M Tris-HCl pH 6.7-7.0; 3.6 Å. To be noted: both partners purified.
Data set [10] addresses B1. Put plainly: ITC; Pep2 (500 μM in the syringe) titrated into TreS (75 μM monomer); 50 mM sodium phosphate pH 7.5, 300 mM NaCl, 10% glycerol, 25 °C. The settings on record: both partners purified.
Data set [11] concerns the molecule itself. The data set is described as follows: SEC. In general terms: Size exclusion chromatography separates by hydrodynamic size, large species first.
Data set [12] has as its target T2, Mycobacterium tuberculosis maltokinase (Pep2) (M. tuberculosis, UniProt O07177).
T2 construct: also called Mtb Pep2; MtPep2
The data set is described as follows: SEC. To be noted: both partners purified.

The term stoichiometry N denotes the number of molecules, sites or subunits per partner or assembly. The Kd is the equilibrium constant for the complex coming apart.

For the molecule B1, the “stoichiometry N” value in data set [1] amounted to 4.

B2: N-terminally truncated M. smegmatis Pep2 (Pep2-Δ70) (domain or fragment)
chain: not shown
notes: Maltokinase Pep2 of M. smegmatis (MSMEG_6514) with a 70-amino acid N-terminal truncation; the whole protein has 441 residues; The first residue 71 follows from the stated 70-residue truncation; also called Msm Pep2-Δ70; source: E. coli BL21 (DE3), purified (as WT Pep2, NaCl 300 mM before ion exchange)
In [2], B2 displayed a Kd of 28.6 µM. Further, in data set [3], the Ka was determined as 35000 M⁻¹, the dissociation constant Kd turned out to be 26.8 µM, the dH is -17.9 kcal/mol and the “stoichiometry N” value amounted to 0.681 ± 0.004.

B3: Mycobacterium smegmatis maltokinase (Pep2) (enzyme)
chain: not shown
notes: Maltokinase Pep2 of M. smegmatis (MSMEG_6514); 441 residues; cloned with primers from the start codon to the stop codon; also called Msm Pep2; MsPep2; source: E. coli BL21 (DE3), purified (Ni-NTA, HiTrap Q, Sephacryl S-300HR)
In the case of B3, in data set [4], the Ka worked out at 210000 M⁻¹, the Kd is 4.8 µM and the “stoichiometry N” value is 0.79 ± 0.015. Also, in [5], the Ka worked out at 210000 M⁻¹, the equilibrium dissociation constant (Kd) came out at 4.8 µM and the “stoichiometry N” value amounted to 0.58 ± 0.01. For the same molecule, in [6], the Ka amounted to 222000 M⁻¹, the Kd was 4.5 µM and the “stoichiometry N” value is 0.54 ± 0.01.

B4: Mycobacterium smegmatis maltokinase (Pep2) (enzyme)
chain: not shown
notes: Maltokinase Pep2 of M. smegmatis, locus MSMEG_6514, 441 residues, cloned from genomic DNA into NdeI/HindIII of pET28a; the printed primers run from the start codon to the stop codon; Monomer by size exclusion; calculated mass 48,800 Da; also called Msm Pep2; MsPep2; source: E. coli BL21 (DE3), purified (Ni-NTA, HiTrap Q, Sephacryl S-300HR)
B4: the Ka stood at 28700 M⁻¹ in data set [7], 287000 M⁻¹ in data set [3] and 160000 M⁻¹ in data set [10]. Also, the equilibrium dissociation constant (Kd) in data set [7] stood at 34.8 µM; in data set [3], 3.48 µM; in [10], 6.25 µM. The dH is -22.3 kcal/mol in data set [7], -31.3 kcal/mol in [3] and -18.7 kcal/mol in [10]. Moreover, the “stoichiometry N” value in data set [7] was 0.22 ± 0.04; in data set [3], 0.574 ± 0.007; in [8] it was 2 copies of Pep2 per TreS tetramer; in data set [9], 1 Pep2 per TreS protomer; in [10], 0.459 ± 0.008.

B5: Mycobacterium tuberculosis trehalose synthase (TreS), wild type (enzyme)
chain: MNEAEHSVEHPPVQGSHVEGGVVEHPDAKDFGSAAALPADPTWFKHAVFYEVLVRAFFDASADGSGDLRGLIDRLDYLQWLGIDCIWLPPFYDSPLRDGGYDIRDFYKVLPEFGTVDDFVALVDAAHRRGIRIITDLVMNHTSESHPWFQESRRDPDGPYGDYYVWSDTSERYTDARIIFVDTEESNWSFDPVRRQFYWHRFFSHQPDLNYDNPAVQEAMIDVIRFWLGLGIDGFRLDAVPYLFEREGTNCENLPETHAFLKRVRKVVDDEFPGRVLLAEANQWPGDVVEYFGDPNTGGDECHMAFHFPLMPRIFMAVRRESRFPISEIIAQTPPIPDMAQWGIFLRNHDELTLEMVTDEERDYMYAEYAKDPRMKANVGIRRRLAPLLDNDRNQIELFTALLLSLPGSPVLYYGDEIGMGDVIWLGDRDGVRIPMQWTPDRNAGFSTANPGRLYLPPSQDPVYGYQAVNVEAQRDTSTSLLNFTRTMLAVRRRHPAFAVGAFQELGGSNPSVLAYVRQVAGDDGDTVLCVNNLSRFPQPIELDLQQWTNYTPVELTGHVEFPRIGQVPYLLTLPGHGFYWFQLTTHEVGAPPTCGGERRL
notes: also called Mtb TreS; WT Mtb TreS
Take B5: in data set [11], the “stoichiometry N” value came out at 4. The binding result in data set [12] is recorded as “binds”.
